Values quoted from earlier work as cited in publication PMC4482139.

What was measured:
[1] = target: nmMLCK1 (Homo sapiens) (UniProt Q15746)
[2] = target: nmMLCK2 (Homo sapiens) (UniProt Q15746)

Kd [1]: 1000 nM
Kd [2]: 250 nM
Substance: Cortactin (from UniProt Q14247)
